Assay results reported in US20180030149A1 (AVEO PHARMACEUTICALS, published 2018).

How the values were obtained:
[1] = target: T1, recombinant human ErbB3/Fc fusion protein (human, UniProt P21860 20-643); assay: ECL (MSD) competition: rhErbB3/Fc coated on the plate, antibody dilutions, then NRG1-β1 at 0.25 µg/ml; bound NRG1-β1 detected
T1 construct: Bought (R&D Systems, Cat. No. 348-RB); the NRG1-α1 assay names Cat. No. 4518-RB instead; also called rhErbB3-Fc; rhErbB3/Fc; not shown: Fc portion of the bought fusion protein
Procedure: (§1) MA2400 96-well standard binding plates (Meso Scale Discovery, Cat. No. L15XA-6) were coated with 50 μl of 0.5 μg/mL rhErbB3/Fc (R&D systems, Cat. No. 348-RB) in PBS (Invitrogen, Cat. No. 14040-133) for overnight at 4° C. with no agitation. The plates then were washed 3 times with PBS+0.1% Tween20 (Sigma P5927) and blocked with 200 μl of PBS containing 5% BSA (Sera Care Life Sciences, Cat. No. AP-4510-80) for 1.5 hour at room temperature. After washing the plates 3 times with PBS, 25 μl of the antibody dilutions were added to the plates for another hour at room temperature with agitation. […] The plates then were washed 3 times with PBS, and 150 μl of 1× read buffer (Meso Scale Discovery, Cat. No. R92TC-1) was added to each well before the plates were analyzed on a Sector® Imager 2400 (Meso Scale Discovery) instrument.

human ErbB3 [2] = target: T2, human ErbB3 (human, UniProt P21860 20-1342); assay: cell-based or functional assay
human ErbB3 [3] = target: T2, human ErbB3; assay: cell-based or functional assay; remark: listed apart in the source
[4] = target: T1, recombinant human ErbB3/Fc fusion …; assay: ECL competition; inhibition of NRG1-β1 binding to plate-coated rhErbB3/Fc
Procedure: as §1

[5] = target: T1, recombinant human ErbB3/Fc fusion …; assay: SPR Biacore T100, 25 C; antibody captured on anti-mouse IgG, rhErbB3-Fc injected
Procedure: Rabbit anti-mouse IgGs (Biacore, Cat. No. BR-1008-38) were immobilized on carboxymethylated dextran CM4 sensor chips (Biacore, Cat. No. BR-1005-34) by amine coupling (BIAcore, Cat. No. BR-1000-50) using a standard coupling protocol according to vendor's instructions. The analyses were performed at 25° C., using PBS (Invitrogen, Cat. No. 14040-133) containing 0.05% surfactant P20 (Biacore, Cat. No. BR-1000-54) as running buffer.
The antibodies were captured in individual flow cells at a flow rate of 10 μl/minute. Injection time was varied for each antibody to yield an Rₘₐₓ between 30 and 60 RU. […] The dissociation phase was monitored for up to 3600 seconds. The surface was then regenerated with two 60-seconds injection of 10 mM Glycine-HCl, pH 1.7 (made from Glycine pH 1.5 (Biacore, Cat. No. BR-1003-54) and pH 2.0 (Biacore, Cat. No. BR-1003-55)) at a flow rate of […].
(§2) Kinetic parameters were determined using the kinetic function of the BIAevaluation software (Biacore) with double reference subtraction. Kinetic parameters for each antibody, kₐ (association rate constant), kd (dissociation rate constant) and KD (equilibrium dissociation constant) were determined.

[6] = target: T3, recombinant human ErbB3 monomeric protein (cleaved rhErbB3) (human, UniProt P21860 20-643, limits assumed); assay: SPR Biacore 37 C; purified antibody captured on anti-human Fc, cleaved rhErbB3 0.3125-5.0 nM
T3 construct: Monomer made by protease cleavage of the Fc fusion; also called Monomeric ErbB3
Procedure: (§3) The analyses were performed at 37° C. using PBS (Invitrogen, Catalog No. 14040-133) containing 0.05% surfactant P20 (Biacore, Catalog No. BR-1000-54) as running buffer.
(§4) The antibodies were captured in individual flow cells at a flow rate of […]. Injection time was varied for each antibody to yield an Rₘₐₓ between 30 and 60 RU. […] The dissociation phase was monitored for up to 1200 seconds. The surface was then regenerated with two 60 second injections of Glycine pH 2.25 (made from Glycine pH 2.0 (Biacore, Catalog No. BR-1003-55) and pH 2.5 (Biacore, Catalog No. BR-1003-56)) at […].
The binding affinities and kinetics of certain purified monoclonal antibodies were also determined. To further characterize certain antibodies, the surface plasmon resonance experiments described above were conducted using concentrations of cleaved rhErbB3 between 0.3125 nM and 5.0 nM (a 2-fold serial dilution).

[7] = target: T3, recombinant human ErbB3 monomeric …; assay: SPR Biacore 37 C; supernatant antibody captured on anti-human Fc, cleaved rhErbB3 injected
Procedure: as §3, §4, §2

B1: 18H02 (antibody, mouse IgG1, kappa, V domains shown)
VH: QIQLVQSGPELKKPGEAVKISCKSSGYTFTTYGMSWVKQAPGRALKWMGWINTYSGVPTYADDFKGRFAFSLESSASTAYLQINNLKNEDTATYFCARGRDGYQVAWFAYWGQGTLVTVSA
VL: ETTVTQSPASLSMAIGDKVTIRCITSTDIDDDMNWFQQKPGEPPKLLISEGNTLRPGVPSRFSGSGYGTDFIFTIENMLSEDVADYYCLQSDNLPYTFGGGTKLEIKR
notes: Murine IgG1/kappa, from hybridoma; also called anti-hErbB3 monoclonal antibody 18H02
- IC50 (read off the curve) [1]: ~0.3 nM
- inhibition of NRG1-β1 induced phosphorylation of Akt in MCF7 and DU145 cells (ELISA) (human ErbB3 [2]): ≥ 80%
- inhibition of NRG1-β1 induced phosphorylation of ErbB3 in SKBR-3 cells (ELISA, 5 µg/ml antibody) (human ErbB3 [2]): ≥ 50%
- IC50, NRG1-β1 dependent proliferation of MCF7 cells (MTT) (human ErbB3 [3]): 1 nM
- IC50 [4]: 0.346 nM
- Kd [5]: 0.091 nM
- koff [5]: 2.5e-05 s⁻¹
- kon [5]: 280000 M⁻¹ s⁻¹

B2: Sh24C05-25 (antibody, human IgG1, kappa, V domains shown)
VH: QVQLVESGGGLVKPGGSLRLSCAASGFTFSDYAMSWIRQAPGKGLEWVSTISDGGTYTYYPDNVKGRFTISRDNAKNSLYLQMNSLRAEDTAVYYCAREWGDYDGFDYWGQGTLVTVSS
VL: DIQMTQSPSSLSASVGDRVTITCRASQEISGYLSWFQQKPGKAPKSLIYAASTLDSGVPSRFSGSGSGTDFTLTISSLQPEDFATYYCLQYDSYPYTFGQGTKLEIKR
notes: Humanized, human IgG1/kappa
- Kd [6]: 0.13 nM
- koff [6]: 0.0005 s⁻¹
- kon [6]: 4e+06 M⁻¹ s⁻¹
- Kd [7]: 0.175 nM
- koff [7]: 0.000459 s⁻¹
- kon [7]: 2.63e+06 M⁻¹ s⁻¹

B3: Sh24C05-17 (antibody, human IgG1, kappa, V domains shown)
VH: QVQLVESGGGVVQPGRSLRLSCAASGFTFSDYAMSWVRQAPGKGLEWVATISDGGTYTYYPDNVKGRFTISRDNSKNTLYLQMSSLRAEDTAVYYCAREWGDYDGFDYWGQGTLVTVSS
VL: DIQMTQSPSSLSASVGDRVTITCRASQEISGYLSWLQQKPGGAIKRLIYAASTLDSGVPSRFSGSGSGSDYTLTISSLQPEDFATYYCLQYDSYPYTFGQGTKLEIKR
notes: Humanized, human IgG1/kappa
- Kd [7]: 0.15 nM
- koff [7]: 0.000417 s⁻¹
- kon [7]: 2.79e+06 M⁻¹ s⁻¹

B4: Sh24C05-31 (antibody, human IgG1, kappa, V domains shown)
VH: QVQLVESGGGLVKPGGSLRLSCAASGFTFSDYAMSWIRQAPGKGLEWVSTISDGGTYTYYPDNVKGRFTISRDNAKNSLYLQMNSLRAEDTAVYYCAREWGDYDGFDYWGQGTLVTVSS
VL: DIQMTQSPSSLSASVGDRVTITCRASQEISGYLSWYQQKPGKAPKRLIYAASTLDSGVPSRFSGSGSGTEFTLTISSLQPEDFATYYCLQYDSYPYTFGQGTKLEIKR
notes: Humanized, human IgG1/kappa
- Kd [6]: 0.063 nM
- koff [6]: 0.00028 s⁻¹
- kon [6]: 4.7e+06 M⁻¹ s⁻¹
- Kd [7]: 0.0865 nM
- koff [7]: 0.000292 s⁻¹
- kon [7]: 3.47e+06 M⁻¹ s⁻¹

B5: Sh24C05-48 (antibody, human IgG1, kappa)
heavy: not shown
light: DIQMTQSPSSLSASVGDRVTITCRASQEISGYLSWYQQKPGKAPKLLIYAASTLDSGVPSRFSGSGSGTDFTLTISSLQPEDFATYYCLQYDSYPYTFGQGTKLEIKRTVAAPSVFIFPPSDEQLKSGTASVVCLLNNFYPREAKVQWKVDNALQSGNSQESVTEQDSKDSTYSLSSTLTLSKADYEKHKVYACEVTHQGLSSPVTKSFNRGEC
notes: Humanized, human IgG1/kappa
- Kd [7]: 0.562 nM
- koff [7]: 0.0049 s⁻¹
- kon [7]: 8.72e+06 M⁻¹ s⁻¹

B6: Sh24C05-49 (antibody, human IgG1, kappa, V domains shown)
VH: QVQLVESGGGLVKPGGSLRLSCAASGFTFSDYAMSWIRQAPGKGLEWVSTISDGGTYTYYPDNVKGRFTISRDNAKNSLYLQMNSLRAEDTAVYYCAREWGDYDGFDYWGQGTLVTVSS
VL: DIQMTQSPSSLSASVGDRVTITCRASQEISGYLSWYQQKPGKAPKLLIYAASTLDSGVPSRFSGSGSGTDFTLTISSLQPEDFATYYCLQYDSYPYTFGQGTKLEIKR
notes: Humanized, human IgG1/kappa
- Kd [7]: 0.416 nM
- koff [7]: 0.0017 s⁻¹
- kon [7]: 4.08e+06 M⁻¹ s⁻¹

B7: 11G01 (antibody, mouse IgG1, kappa, V domains shown)
VH: QVQLQQSDAELVKPGASVKISCKVSGYTFTDHIIHWMKQRPEQGLEWIGYIYPRDGYIKYNEKFKGKATLTADKSSSTAYMQVNSLTSEDSAVYFCARGYYYAMDYWGQGTSVTVSS
VL: DVLMTQTPLSLPVSLGDQASISCRSSQSIVHSIGNTYLEWYLQKPGQSPKLLIYKVSNRFSGVPERFSGSGSGTDFTLKISRVEAEDLGVYYCFQGSHVPFTFGSGTKLEIKR
notes: Murine IgG1/kappa, from hybridoma; also called anti-hErbB3 monoclonal antibody 11G01
- inhibition of NRG1-β1 induced phosphorylation of Akt in MCF7 and DU145 cells (ELISA) (human ErbB3 [2]): ≥ 80%
- inhibition of NRG1-β1 induced phosphorylation of ErbB3 in SKBR-3 cells (ELISA, 5 µg/ml antibody) (human ErbB3 [2]): ≥ 50%
- IC50, NRG1-β1 dependent proliferation of MCF7 cells (MTT) (human ErbB3 [3]): 1.98 nM
- Kd [5]: 0.091 nM
- koff [5]: 2.2e-05 s⁻¹
- kon [5]: 270000 M⁻¹ s⁻¹

B8: 12A07 (antibody, mouse IgG1, kappa, V domains shown)
VH: QVQLLQPGAELVRPGTSVKLSCKTSGYTFSSYWMHWVKQRPGQGLEWIGMIDPSDVYTNYNPKFKGKATLTVDTSSSTAYMQLSSLTSEDSAVYYCARNYSGDYWGQGTTLTVSS
VL: DVLMTQIPLSLPVSLGDQASISCRSSQSIVHSNGNTYLEWYLQKPGQSPKLLIYKVSNRFSGVPDRFSGSGSGTDFTLKISRVEAEDLGVYYCFQGSYVPWTFGGGTKLEIKR
notes: Murine IgG1/kappa, from hybridoma; also called anti-hErbB3 monoclonal antibody 12A07
- IC50 (read off the curve) [1]: ~0.2 nM
- inhibition of NRG1-β1 induced phosphorylation of Akt in MCF7 and DU145 cells (ELISA) (human ErbB3 [2]): ≥ 80%
- inhibition of NRG1-β1 induced phosphorylation of ErbB3 in SKBR-3 cells (ELISA, 5 µg/ml antibody) (human ErbB3 [2]): ≥ 50%
- IC50, NRG1-β1 dependent proliferation of MCF7 cells (MTT) (human ErbB3 [3]): 0.74 nM
- IC50 [4]: 0.235 nM
- Kd [5]: 0.3 nM
- koff [5]: 0.00019 s⁻¹
- kon [5]: 620000 M⁻¹ s⁻¹

B9: 22A02 (antibody, mouse IgG1, kappa, V domains shown)
VH: QVQLQQPGAELVRPGTSVKLSCKASGYTFTNYWMHWVKQRPGQGLEWIGMIDPSDSYTNYNPKFKGKATLTVDTSSSTAYMQLSSLTSEDSAVYYCARNYSGDYWGQGTTLTVSS
VL: DVLMTQTPLSLPVSLGDQASISCRSSQSIVHSNGNTYLEWYLQKPGQSPKLLIYKVSNRFSGVPDRFSGSGSGTDFTLKISRVEAEDLGVYYCFQGSYVPWTFGGGTKLEIKR
notes: Murine IgG1/kappa, from hybridoma; also called anti-hErbB3 monoclonal antibody 22A02
- IC50 (read off the curve) [1]: ~0.2 nM
- inhibition of NRG1-β1 induced phosphorylation of Akt in MCF7 and DU145 cells (ELISA) (human ErbB3 [2]): ≥ 80%
- inhibition of NRG1-β1 induced phosphorylation of ErbB3 in SKBR-3 cells (ELISA, 5 µg/ml antibody) (human ErbB3 [2]): ≥ 50%
- IC50, NRG1-β1 dependent proliferation of MCF7 cells (MTT) (human ErbB3 [3]): 1.62 nM
- IC50 [4]: 0.242 nM
- Kd [5]: 0.32 nM
- koff [5]: 0.00022 s⁻¹
- kon [5]: 700000 M⁻¹ s⁻¹

B10: Sh24C05-1 (antibody, human IgG1, kappa)
heavy: not shown
light: DIQMTQSPSSLSASLGERVSLTCRASQEISGYLSWLQQKPDGTIKRLIYAASTLDSGVPKRFSGSRSGSDYSLTIGSLESEDLADYYCLQYDSYPYTFGGGTKLEIKRTVAAPSVFIFPPSDEQLKSGTASVVCLLNNFYPREAKVQWKVDNALQSGNSQESVTEQDSKDSTYSLSSTLTLSKADYEKHKVYACEVTHQGLSSPVTKSFNRGEC
notes: Chimeric: mouse 24C05 variable regions, human IgG1/kappa constant regions; also called Chimeric 24C05
- Kd [6]: 0.14 nM
- koff [6]: 0.00044 s⁻¹
- kon [6]: 3.5e+06 M⁻¹ s⁻¹
- Kd [7]: 0.178 nM
- koff [7]: 0.000448 s⁻¹
- kon [7]: 2.52e+06 M⁻¹ s⁻¹
